Target: T1, CD6 (human (endogenous in CD4+ T cells), UniProt P30203 18-668)
T1 sequence (looked up): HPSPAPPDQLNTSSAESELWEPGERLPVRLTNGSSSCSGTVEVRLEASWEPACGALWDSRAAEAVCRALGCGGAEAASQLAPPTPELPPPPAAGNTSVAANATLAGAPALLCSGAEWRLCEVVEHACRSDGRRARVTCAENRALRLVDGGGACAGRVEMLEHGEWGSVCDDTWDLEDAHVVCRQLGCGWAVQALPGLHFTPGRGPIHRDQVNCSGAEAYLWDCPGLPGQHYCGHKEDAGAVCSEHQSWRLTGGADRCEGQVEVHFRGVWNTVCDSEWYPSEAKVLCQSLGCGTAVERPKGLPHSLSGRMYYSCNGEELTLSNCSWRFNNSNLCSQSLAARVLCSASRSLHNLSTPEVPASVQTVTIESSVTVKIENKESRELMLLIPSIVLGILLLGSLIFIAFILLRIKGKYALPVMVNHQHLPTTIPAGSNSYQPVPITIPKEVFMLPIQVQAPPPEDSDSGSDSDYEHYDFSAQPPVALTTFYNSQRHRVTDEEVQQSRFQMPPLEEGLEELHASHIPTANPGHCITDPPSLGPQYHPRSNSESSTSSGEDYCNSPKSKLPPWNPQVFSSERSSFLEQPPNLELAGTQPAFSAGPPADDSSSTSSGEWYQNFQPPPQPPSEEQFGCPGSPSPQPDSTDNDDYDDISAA
Assay: cell-based or functional assay

phosphorylation of SLP-76 (Ser376), phospho/total ratio by western blot, activated CD4+ T cells stimulated with 2 ug/ml sCD72 against control: ~2 fold
B1: soluble CD72 (extracellular part of human CD72, amino acids 117-359, V5 and 8xHis tagged) (domain or fragment, UniProt P21854 117-359, looked up)
chain: RYLQVSQQLQQTNRVLEVTNSSLRQQLRLKITQLGQSAEDLQGSRRELAQSQEALQVEQRAHQAAEGQLQACQADRQKTKETLQSEEQQRRALEQKLSNMENRLKPFFTCGSADTCCPSGWIMHQKSCFYISLTSKNWQESQKQCETLSSKLATFSEIYPQSHSYYFLNSLLPNGGSGNSYWTGLSSNKDWKLTDDTQRTRTYAQSSKCNKVHKTWSWWTLESESCRSSLPYICEMTAFRFPD
